This experiment addresses protein sHIP (streptococcal Histidine-rich glycoprotein Interacting Protein), sHIPwt (S. pyogenes). Nature of the experiment: AUC; sedimentation velocity, 20°C, 50000 rpm, 20 mM MES pH 5.5; c(S) distribution compared with theoretical sedimentation coefficients (HYDROPRO).

On to “protein sHIP (streptococcal Histidine-rich glycoprotein Interacting Protein), sHIPwt (natural protein)”, for which the stoichiometry N is 4.

Broadly, the stoichiometry N is a count of units in the complex or per binding partner.

These data come from paper PMC4742562, “Structure and Interactions of a Dimeric Variant of sHIP, a Novel Virulence Determinant of Streptococcus pyogenes” (Frontiers in Microbiology, 2016).
